From patent publication US20180112001A1

Target: human MUC16 (mucin 16), endogenously expressed on cells (human)
Assay: MSD electrochemiluminescence cell binding; RLU ratio OVCAR-3/SK-OV-3; Ab […]; NS = Non-Specific, ratio <2.5-fold

Ratio: anti-MUC16 Binding OVCAR-3/SK-OV-3, < 2.5:
hIgG1 Isotype Control Antibody
mIgG1 Isotype Control Antibody
mIgG2a Isotype Control Antibody
